This note sets out measurements from PMC4038265.

What all share (experiment): SEC + other: dynamic light scattering
Assay [1] concerns the target G. stearothermophilus GerD D118A (Geobacillus stearothermophilus).
Assay [2] concerns the target G. stearothermophilus GerD F86P (Geobacillus stearothermophilus).
The target in assay [3] is G. stearothermophilus GerD M36P (Geobacillus stearothermophilus).
Assay [4] addresses G. stearothermophilus GerD M111P (Geobacillus stearothermophilus).
In assay [5] the target is G. stearothermophilus GerD M138P (Geobacillus stearothermophilus).
Assay [6] deals with G. stearothermophilus GerD Q122A (Geobacillus stearothermophilus).
In assay [7] the target is G. stearothermophilus GerD R148A (Geobacillus stearothermophilus).
The target of assay [8] is G. stearothermophilus GerD ΔH01-02 (Geobacillus stearothermophilus).
Assay [9] addresses G. stearothermophilus GerD ΔH5-8 (Geobacillus stearothermophilus).
The target in assay [10] is G. stearothermophilus GerD ΔH6-8 (Geobacillus stearothermophilus).

One may read the stoichiometry N as a count of units in the complex or per binding partner. With “G. stearothermophilus GerD D118A (from UniProt A0ACH1E844 1-195) (natural protein)”, in assay [1], the stoichiometry N turned out to be 3. Take “G. stearothermophilus GerD F86P (from UniProt A0ACH1E844 1-195) (natural protein)”: the stoichiometry N in assay [2] turned out to be 3. Turning to “G. stearothermophilus GerD M36P (from UniProt A0ACH1E844 1-195) (natural protein)”, the stoichiometry N in assay [3] was 3. With “G. stearothermophilus GerD M111P (from UniProt A0ACH1E844 1-195) (natural protein)”, in assay [4], the stoichiometry N worked out at 3.

As for “G. stearothermophilus GerD M138P (from UniProt A0ACH1E844 1-195) (natural protein)”, the stoichiometry N in assay [5] was determined as 3. Take “G. stearothermophilus GerD Q122A (from UniProt A0ACH1E844 1-195) (natural protein)”: the stoichiometry N in assay [6] was 3.

As to “G. stearothermophilus GerD R148A (from UniProt A0ACH1E844 1-195) (natural protein)”, in [7], the stoichiometry N is 3. As to “G. stearothermophilus GerD ΔH01-02 (from UniProt A0ACH1E844 60-180) (domain or fragment)”, the stoichiometry N in assay [8] was 3. For “G. stearothermophilus GerD ΔH5-8 (from UniProt A0ACH1E844 1-120) (domain or fragment)”, the stoichiometry N in assay [9] stood at 3. Consider “G. stearothermophilus GerD ΔH6-8 (from UniProt A0ACH1E844 1-133) (domain or fragment)”, for which, in [10], the stoichiometry N is 3.
